Patent US20190315886A1

Tests used:
[1] = biological target: human prothrombin with His tag (human) (UniProt P00734); assay: Biacore; reference h1601-008
[2] = biological target: human thrombin with His tag (human) (UniProt P00734); assay: Biacore; reference h1601-008
[3] = biological target: human prothrombin with His tag (human) (UniProt P00734); assay: Biacore
[4] = biological target: human thrombin with His tag (human) (UniProt P00734); assay: Biacore
[5] = biological target: human thrombin with His tag (human) (UniProt P00734); assay: Biacore; ratio of KD on pro-thrombin to KD on thrombin

Substance: Ichorcumab (antibody)
- Fold of Affinity relative to h1601-008 [1]: 0.6 fold
- Fold of Affinity relative to h1601-008 [2]: 3 fold
- Kd [3]: 131 nM
- Kd [4]: 2.57 nM
- Selective activity [5]: 51
